Assay [1] addresses SARS-CoV-2 Omicron-variant receptor binding domain (RBD) (SARS-CoV-2 Omicron variant). The assay can be described thus: BLI, IgG. A general note: Biolayer interferometry detects binding as a change in optical thickness at a sensor tip.
For assay [2], the target named is SARS-CoV-2 Beta-variant Spike with two stabilizing proline substitutions (S-2P) (SARS-CoV-2 Beta variant). The experiment in a line: BLI, IgG, single replicate.
Assay [3] shares this target. The assay can be described thus: BLI, Fab.
For assay [4], the target named is SARS-CoV-2 Omicron-variant receptor binding domain (RBD) (SARS-CoV-2 Omicron variant). The experiment in a line: BLI, Fab.
Assay [5] addresses SARS-CoV-2 BQ.1.1 Spike RBD (SARS-CoV-2 BQ.1.1 variant). The experiment in a line: BLI, IgG.
Assay [6] has as its target SARS-CoV-2 XBB Spike RBD (SARS-CoV-2 XBB variant). The experiment in a line: BLI, IgG.
The target of assay [7] is SARS-CoV-2 XBB.1.5 Spike RBD (SARS-CoV-2 XBB.1.5 variant). The experiment in a line: BLI, IgG.

From patent US20250243261A1 come the findings set out here.

B1: REGN10987 WT IgG (antibody, V domains shown)
VH: QVQLVESGGGVVQPGRSLRLSCAASGFTFSNYAMYWVRQAPGKGLEWVAVISYDGSNKYYADSVKGRFTISRDNSKNTLYLQMNSLRTEDTAVYYCASGSDYGDYLLVYWGQGTLVTVSS
VL: QSALTQPASVSGSPGQSITISCTGTSSDVGGYNYVSWYQQHPGKAPKLMIYDVSKRPSGVSNRFSGSKSGNTASLTISGLQSEDEADYYCNSLTSISTWVFGGGTKLTVL
In the case of B1, the dissociation constant Kd in assay [1] was 700 nM; in assay [2] it was 0.09 nM.

B2: REGN10987 WT Fab (Fab, V domains shown)
VH: QVQLVESGGGVVQPGRSLRLSCAASGFTFSNYAMYWVRQAPGKGLEWVAVISYDGSNKYYADSVKGRFTISRDNSKNTLYLQMNSLRTEDTAVYYCASGSDYGDYLLVYWGQGTLVTVSS
VL: QSALTQPASVSGSPGQSITISCTGTSSDVGGYNYVSWYQQHPGKAPKLMIYDVSKRPSGVSNRFSGSKSGNTASLTISGLQSEDEADYYCNSLTSISTWVFGGGTKLTVL
Regarding B2, the Kd is 13 nM in assay [3] and 23000 nM in assay [4].

B3: SA58 WT IgG (antibody, V domains shown)
VH: QVQLAQSGSELRKPGASVKVSCDTSGHSFTSNAIHWVRQAPGQGLEWMGWINTDTGTPTYAQGFTGRFVFSLDTSARTAYLQISSLKADDTAVFYCARERDYSDYFFDYWGQGTLVTVSS
VL: EVVMTQSPASLSVSPGERATLSCRARASLGISTDLAWYQQRPGQAPRLLIYGASTRATGIPARFSGSGSGTEFTLTISSLQSEDSAVYYCQQYSNWPLTFGGGTKVEIK
As to B3, the dissociation constant (Kd) was less than 0.001 nM in assay [5], 7400 nM in assay [6] and 2400 nM in assay [7].

As a reminder, the Kd is the concentration at which binding is half-saturated.
